# Test results published in the supplement of paper PMC10567573.
# B1: SFRS1 (parent)
# chain: RDIDLKNRRGGPPFAFVEFEDPRD
# Variants of: B1
# Assay: protein stability index of a GFP-peptide fusion (GPS, HEK-293T) (PSI 1-6); higher = more stable
# Conditions: c terminus: a fixed tail appended
# 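Also: lentivirally expressed fusions sorted by FACS into six bins by GFP to DsRed ratio, PSI derived from sequencing read proportions per bin multiplied by bin number.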
row,Variant,protein stability index
1,RDIDLKNRRHGPPFAFVEFEDPRD [G10H],3.85
2,RDIDLKNRRYGPPFAFVEFEDPRD [G10Y],3.19
3,RDIDLKNRRNGPPFAFVEFEDPRD [G10N],3.63
4,RDIDLKNRRDGPPFAFVEFEDPRD [G10D],4.15
5,RDIDLKNRRRGPPFAFVEFEDPRD [G10R],2.96
6,RDIDLKNRRQGPPFAFVEFEDPRD [G10Q],4.18
7,DDIDLKNRRGGPPFAFVEFEDPRD [R1D],4.74
8,IDIDLKNRRGGPPFAFVEFEDPRD [R1I],3.1
9,ADIDLKNRRGGPPFAFVEFEDPRD [R1A],4.38
10,SDIDLKNRRGGPPFAFVEFEDPRD [R1S],3.84
11,HDIDLKNRRGGPPFAFVEFEDPRD [R1H],3.89
12,RDIDLKNRRGCPPFAFVEFEDPRD [G11C],3.77
13,RDIDLKNRRGHPPFAFVEFEDPRD [G11H],3.52
14,RDIDLKNRRGGPPFATVEFEDPRD [F16T],4.96
15,RDIDLKNRRGGPPFAVVEFEDPRD [F16V],4.62
16,RDIDLKNRRGGPPFALVEFEDPRD [F16L],4.81
17,RDIDLKNRRGGPPFAHVEFEDPRD [F16H],4.77
18,RDIDLKNRRGGPPFAFVEFEDPRH [D24H],3.59
19,RDIDLKNRRGGPPFAFVEFEDPRN [D24N],2.9
20,RDIDLKNRRGGPPFAFVEFEDPRE [D24E],4.76
21,RDIDLKNRRGGPPFAFVEFEDPRP [D24P],3.42
22,RDIDLKNRRGGPPFAFVEFEDPRF [D24F],2.15
23,RDIDLKNRRGGPPFAFVEFEDPRL [D24L],2.31
24,RDIDLKQRRGGPPFAFVEFEDPRD [N7Q],3.56

row,Variant,protein stability index
1,RDIDLKVRRGGPPFAFVEFEDPRD [N7V],3.39
2,RDIDLKARRGGPPFAFVEFEDPRD [N7A],3.61
3,RDIILKNRRGGPPFAFVEFEDPRD [D4I],3.17
4,RDIGLKNRRGGPPFAFVEFEDPRD [D4G],3.34
5,RDIHLKNRRGGPPFAFVEFEDPRD [D4H],3.25
6,RDIQLKNRRGGPPFAFVEFEDPRD [D4Q],3.57
7,RDINLKNRRGGPPFAFVEFEDPRD [D4N],3.61
8,RDIWLKNRRGGPPFAFVEFEDPRD [D4W],2.35
9,RFIDLKNRRGGPPFAFVEFEDPRD [D2F],2.91
10,RDIDLKNRRGGPWFAFVEFEDPRD [P13W],3.39
11,RDIDLKNRRGGPMFAFVEFEDPRD [P13M],4.02
12,RDIDLKNRRGGPRFAFVEFEDPRD [P13R],4.23
13,RDIDLKNRRGGPPFAFIEFEDPRD [V17I],3.97
14,RDIDLKNRRGGPPFAFAEFEDPRD [V17A],4.35
15,RDIDLKNRRGGPPFAFPEFEDPRD [V17P],4.63
16,RDIDLKNRRGGPPFAFGEFEDPRD [V17G],4.43
17,RDIDLKNRRGGPPFAFVEFEDDRD [P22D],4.5
18,RDIDLKNRRGGPPFAFVEFEDRRD [P22R],3.62
19,RDIDLKNRRGGPPFAFVEFEDARD [P22A],3.93
20,RDIDLKNRRGGPPFAFVEFEDLRD [P22L],3.19
21,RDIDLKNRRGGPPFAFVEFEDYRD [P22Y],3.58
22,RDIDLKNRRGGPPFAFVEFEDMRD [P22M],3.76
23,RDIDLKNRRGGPPFAFVEFEDCRD [P22C],3.8
24,RDIDLKNRRGGPPFAFVEFEKPRD [D21K],3.73

row,Variant,protein stability index
1,RDIDLKNRRGGVPFAFVEFEDPRD [P12V],3.9
2,RDIDLKNRRGGNPFAFVEFEDPRD [P12N],4.72
3,RDIDLKNRRGGSPFAFVEFEDPRD [P12S],4
4,RDIDLKNRRGGIPFAFVEFEDPRD [P12I],3.13
5,RDIDLKNFRGGPPFAFVEFEDPRD [R8F],3.75
6,RDIDLKNNRGGPPFAFVEFEDPRD [R8N],4.27
7,RDIDLKNDRGGPPFAFVEFEDPRD [R8D],4.42
8,RDIDLKNARGGPPFAFVEFEDPRD [R8A],4.06
9,RDIDLKNLRGGPPFAFVEFEDPRD [R8L],3.77
10,RDIDLKNMRGGPPFAFVEFEDPRD [R8M],4.12
11,RDIDLKNRRGGPPFAFVEYEDPRD [F19Y],4.11
12,RDIDLKNRRGGPPFAFVEGEDPRD [F19G],4.03
13,RDIDLKNRRGGPPFIFVEFEDPRD [A15I],3.42
14,RDIDLKNRRGGPPFNFVEFEDPRD [A15N],4.73
15,RDIDLKNRRGGPPFAFVEFEDPED [R23E],4.1
16,RDIDLKNRRGGPPFAFVEFEDPFD [R23F],3.37
17,RDIDLINRRGGPPFAFVEFEDPRD [K6I],3.69
18,RDIDLPNRRGGPPFAFVEFEDPRD [K6P],3.63
19,RDIDLLNRRGGPPFAFVEFEDPRD [K6L],3.95
20,RDIDLDNRRGGPPFAFVEFEDPRD [K6D],3.84
21,RDIDLGNRRGGPPFAFVEFEDPRD [K6G],3.98
22,RDIDLKNRRGGPPTAFVEFEDPRD [F14T],4.9
23,RDIDLKNRRGGPPWAFVEFEDPRD [F14W],3.77
24,RDIDLKNRRGGPPVAFVEFEDPRD [F14V],4.55

row,Variant,protein stability index
1,RDIDLKNRRGGPPQAFVEFEDPRD [F14Q],5.27
2,RDIDLKNRRGGPPRAFVEFEDPRD [F14R],4.66
3,RDIDLKNRCGGPPFAFVEFEDPRD [R9C],3.92
4,RDIDLKNRHGGPPFAFVEFEDPRD [R9H],4.21
5,RDFDLKNRRGGPPFAFVEFEDPRD [I3F],3.64
6,RDVDLKNRRGGPPFAFVEFEDPRD [I3V],3.79
7,RDYDLKNRRGGPPFAFVEFEDPRD [I3Y],3.56
8,RDLDLKNRRGGPPFAFVEFEDPRD [I3L],3.81
9,RDHDLKNRRGGPPFAFVEFEDPRD [I3H],3.92
10,RDIDLKNRRGGPPFAFVRFEDPRD [E18R],3.13
11,RDIDLKNRRGGPPFAFVFFEDPRD [E18F],1.81
12,RDIDLKNRRGGPPFAFVGFEDPRD [E18G],2.77
13,RDIDLKNRRGGPPFAFVQFEDPRD [E18Q],2.53
14,RDIDLKNRRGGPPFAFVCFEDPRD [E18C],2.4
15,RDIDLKNRRGGPPFAFVWFEDPRD [E18W],1.88
16,RDIDLKNRRGGPPFAFVDFEDPRD [E18D],3.22
17,RDIDLKNRRGGPPFAFVPFEDPRD [E18P],2.99
18,RDIDPKNRRGGPPFAFVEFEDPRD [L5P],3.68
19,RDIDNKNRRGGPPFAFVEFEDPRD [L5N],3.89
20,RDIDGKNRRGGPPFAFVEFEDPRD [L5G],3.74
21,RDIDLKNRRGGPPFAFVEFFDPRD [E20F],2.67
22,RDIDLKNRRGGPPFAFVEFDDPRD [E20D],3.94
